From patent publication US20050282743A1, “Molecular interactions in cells” (Arbor Vita Corporation, priority 2001, published 2005) come the findings set out here.

Ends that are not written are not given here. Peptide text beside a SMILES is read from it. * marks the point of attachment. Biotin = O=C1N[C@H]2[C@H](CS[C@H]2CCCCC(=O)*)N1

Holding throughout (test): G' assay (10 uM PL peptide), results of TABLE 7 and TABLE 12
What all share (type): binding

Test [1] addresses T1, PDZ protein (GST-PDZ fusion) (Homo sapiens, UniProt Q9C0E4).
T1 construct: made in house; host or cells: E. coli (DH5alpha, BL21 or JM109)
Put shortly:
(§1)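 Biotin-PL peptide (N-term label), 10 uM vs GST-PDZ; protein 5 ug/ml by default. A450 nm binned: 1 = 0-1, 2 = 1-2, 3 = 2-3, 4 = 3-4, 5 = >4 on >2 repeats, 0 = no binding.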

Test [2] has as its target T2, PDZ protein (GST-PDZ fusion) (Homo sapiens, UniProt Q9Y2H9).
T2 construct: made in house; host or cells: E. coli (DH5alpha, BL21 or JM109)
The following applies: PDZ KIAA0973, PDZ Domain 1. Put shortly: as §1

In test [3] the target is T3, PDZ protein (GST-PDZ fusion) (Homo sapiens, UniProt Q5T2W1).
T3 construct: made in house; host or cells: E. coli (DH5alpha, BL21 or JM109)
T3 sequence (Q5T2W1 1-519): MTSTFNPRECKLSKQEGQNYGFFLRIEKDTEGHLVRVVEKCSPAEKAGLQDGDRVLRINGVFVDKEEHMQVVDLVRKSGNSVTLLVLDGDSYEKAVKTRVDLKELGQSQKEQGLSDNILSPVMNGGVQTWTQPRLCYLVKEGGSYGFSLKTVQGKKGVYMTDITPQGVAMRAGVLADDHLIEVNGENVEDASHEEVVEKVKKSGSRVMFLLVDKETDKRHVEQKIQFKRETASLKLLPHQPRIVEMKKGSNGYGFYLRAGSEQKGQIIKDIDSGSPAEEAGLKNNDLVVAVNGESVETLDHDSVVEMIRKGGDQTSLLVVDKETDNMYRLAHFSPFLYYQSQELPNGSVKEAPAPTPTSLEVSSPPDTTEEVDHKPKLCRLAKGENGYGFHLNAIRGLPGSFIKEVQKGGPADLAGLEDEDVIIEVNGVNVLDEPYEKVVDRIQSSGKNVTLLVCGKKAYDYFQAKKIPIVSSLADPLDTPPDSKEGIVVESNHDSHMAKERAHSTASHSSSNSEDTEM
Put shortly:
as §1

Test [4] has as its target T4, PDZ protein (GST-PDZ fusion) (Homo sapiens, UniProt O14745).
T4 construct: made in house; host or cells: E. coli (DH5alpha, BL21 or JM109)
T4 sequence (O14745 1-358): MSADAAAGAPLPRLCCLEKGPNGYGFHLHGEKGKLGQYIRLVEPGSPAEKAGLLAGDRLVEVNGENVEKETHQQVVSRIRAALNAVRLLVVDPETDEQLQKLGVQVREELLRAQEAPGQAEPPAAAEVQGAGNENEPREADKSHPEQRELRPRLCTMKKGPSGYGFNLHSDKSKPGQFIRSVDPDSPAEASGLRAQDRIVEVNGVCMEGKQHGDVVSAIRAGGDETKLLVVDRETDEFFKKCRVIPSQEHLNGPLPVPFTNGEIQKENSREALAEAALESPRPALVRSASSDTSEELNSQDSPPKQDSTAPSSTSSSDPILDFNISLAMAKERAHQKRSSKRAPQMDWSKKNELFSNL
Put shortly:
as §1

T1 sequence (Q9C0E4 whole entry, the tested form may be a part): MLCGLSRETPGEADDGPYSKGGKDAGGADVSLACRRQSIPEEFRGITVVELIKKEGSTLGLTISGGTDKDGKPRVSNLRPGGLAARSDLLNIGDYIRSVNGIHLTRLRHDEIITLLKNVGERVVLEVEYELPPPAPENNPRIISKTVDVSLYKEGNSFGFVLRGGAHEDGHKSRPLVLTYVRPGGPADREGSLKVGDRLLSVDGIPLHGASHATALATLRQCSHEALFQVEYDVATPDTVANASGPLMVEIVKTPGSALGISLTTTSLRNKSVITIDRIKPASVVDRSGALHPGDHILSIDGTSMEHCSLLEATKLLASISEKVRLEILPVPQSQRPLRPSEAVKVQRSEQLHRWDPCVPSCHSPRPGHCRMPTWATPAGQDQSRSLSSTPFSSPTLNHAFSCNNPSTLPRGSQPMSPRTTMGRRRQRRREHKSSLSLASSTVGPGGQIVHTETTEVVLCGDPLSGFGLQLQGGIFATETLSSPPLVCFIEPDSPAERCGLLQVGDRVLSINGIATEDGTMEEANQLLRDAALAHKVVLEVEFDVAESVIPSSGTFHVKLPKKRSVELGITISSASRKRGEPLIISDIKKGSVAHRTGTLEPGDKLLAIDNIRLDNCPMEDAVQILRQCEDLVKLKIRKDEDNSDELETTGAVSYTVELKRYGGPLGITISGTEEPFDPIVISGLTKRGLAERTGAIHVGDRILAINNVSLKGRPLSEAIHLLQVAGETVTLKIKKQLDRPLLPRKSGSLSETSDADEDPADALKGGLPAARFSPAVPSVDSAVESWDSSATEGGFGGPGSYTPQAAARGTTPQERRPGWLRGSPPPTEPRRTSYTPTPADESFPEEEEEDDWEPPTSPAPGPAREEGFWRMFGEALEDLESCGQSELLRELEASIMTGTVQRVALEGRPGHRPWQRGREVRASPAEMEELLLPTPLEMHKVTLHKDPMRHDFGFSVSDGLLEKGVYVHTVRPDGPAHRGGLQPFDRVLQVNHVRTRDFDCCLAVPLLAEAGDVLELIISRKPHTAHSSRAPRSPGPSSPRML
T2 sequence (Q9Y2H9 whole entry, the tested form may be a part): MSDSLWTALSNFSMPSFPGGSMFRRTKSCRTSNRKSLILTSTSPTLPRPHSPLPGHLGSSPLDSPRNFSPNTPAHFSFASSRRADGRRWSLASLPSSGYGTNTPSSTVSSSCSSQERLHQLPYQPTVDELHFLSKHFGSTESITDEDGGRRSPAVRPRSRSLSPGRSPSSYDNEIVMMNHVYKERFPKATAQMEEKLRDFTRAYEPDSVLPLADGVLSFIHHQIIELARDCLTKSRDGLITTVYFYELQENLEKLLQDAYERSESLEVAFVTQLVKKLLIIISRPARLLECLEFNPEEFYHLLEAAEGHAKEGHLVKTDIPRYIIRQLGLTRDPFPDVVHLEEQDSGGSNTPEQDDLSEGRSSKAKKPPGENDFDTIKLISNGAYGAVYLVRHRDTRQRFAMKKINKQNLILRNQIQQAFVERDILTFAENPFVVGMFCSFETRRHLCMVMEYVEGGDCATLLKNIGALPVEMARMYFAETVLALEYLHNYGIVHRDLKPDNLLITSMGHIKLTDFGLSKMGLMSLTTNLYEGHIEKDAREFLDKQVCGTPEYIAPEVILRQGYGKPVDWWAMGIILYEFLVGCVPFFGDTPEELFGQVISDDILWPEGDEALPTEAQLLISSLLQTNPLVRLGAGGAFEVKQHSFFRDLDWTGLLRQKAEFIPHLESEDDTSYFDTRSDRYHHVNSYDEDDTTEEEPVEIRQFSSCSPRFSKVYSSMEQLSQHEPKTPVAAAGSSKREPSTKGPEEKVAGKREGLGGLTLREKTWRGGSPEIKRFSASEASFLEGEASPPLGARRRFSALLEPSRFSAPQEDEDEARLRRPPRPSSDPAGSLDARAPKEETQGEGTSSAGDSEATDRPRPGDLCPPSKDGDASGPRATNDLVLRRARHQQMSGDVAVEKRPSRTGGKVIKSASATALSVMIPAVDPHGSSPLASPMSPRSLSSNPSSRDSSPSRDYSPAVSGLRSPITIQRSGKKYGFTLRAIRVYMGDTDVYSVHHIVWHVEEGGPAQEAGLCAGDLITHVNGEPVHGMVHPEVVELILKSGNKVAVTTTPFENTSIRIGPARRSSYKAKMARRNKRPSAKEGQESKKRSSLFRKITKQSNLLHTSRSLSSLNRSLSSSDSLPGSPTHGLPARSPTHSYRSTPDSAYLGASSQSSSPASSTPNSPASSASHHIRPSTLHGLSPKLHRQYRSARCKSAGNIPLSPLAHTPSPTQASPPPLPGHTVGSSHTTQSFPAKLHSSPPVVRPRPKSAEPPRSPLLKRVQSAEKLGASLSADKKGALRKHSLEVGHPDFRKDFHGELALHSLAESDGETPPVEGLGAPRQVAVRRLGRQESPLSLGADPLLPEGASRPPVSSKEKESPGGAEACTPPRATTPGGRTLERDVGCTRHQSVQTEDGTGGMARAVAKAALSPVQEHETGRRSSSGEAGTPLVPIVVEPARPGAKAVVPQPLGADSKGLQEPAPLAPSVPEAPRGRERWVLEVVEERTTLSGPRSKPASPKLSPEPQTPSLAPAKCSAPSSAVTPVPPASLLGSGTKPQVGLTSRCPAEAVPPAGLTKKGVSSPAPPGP

In the case of “LNETTETQRTLLNGDLQTSI (Biotin-LNETTETQRTLLNGDLQTSI) [SSTR2 (somatostatin recepor 2)]”, in test [1] (PDZ KIAA1719, PDZ Domain 6), the Classification is 1 (A450 nm 0-1).
For CKR5_HUMAN (ERASSVYTRSTGEQEISVGL), the Classification is 1 (A450 nm 0-1) in test [1] (PDZ KIAA1719, PDZ Domain 2) and 1 (A450 nm 0-1) in test [1] (PDZ KIAA1719, PDZ Domain 5).
For “ALVLIAFCIIRRRPSAYQAL (Biotin-ALVLIAFCIIRRRPSAYQAL) [CD68]”, the Classification in test [1] (PDZ KIAA1719, PDZ Domain 3) is recorded as 1 (A450 nm 0-1); in test [1] (PDZ KIAA1719, PDZ Domain 6) it was 1 (A450 nm 0-1); in test [2], 1 (A450 nm 0-1).
For the molecule `CC[C@H](C)[C@H](NC(=O)[C@H](CO)NC(=O)[C@H](CCC(=O)O)NC(=O)[C@H](Cc1ccc(O)cc1)NC(=O)[C@H](CC(=O)O)NC(=O)[C@H](CC(N)=O)NC(=O)[C@H](CCC(=O)O)NC(=O)[C@H](CCCCN)NC(=O)CCCC[C@@H]1SC[C@@H]2NC(=O)N[C@@H]21)C(=O)N[C@@H](CO)C(=O)N[C@@H](CC(=O)O)C(=O)N[C@@H](CC(C)C)C(=O)N[C@@H](CCC(N)=O)C(=O)N[C@@H](CCC(N)=O)C(=O)NCC(=O)N[C@@H](CCCNC(=N)N)C(=O)N[C@@H](CC(=O)O)C(=O)N[C@H](C(=O)N[C@H](C(=O)N[C@@H](CCCNC(=N)N)C(=O)N[C@@H](CC(C)C)C(=O)O)[C@@H](C)O)[C@@H](C)CC` [PAG] (Biotin-KENDYESISDLQQGRDITRL-OH; C-terminus assumed), the Classification in test [3] (PDZ PDZK1, PDZ Domain 2, 3, 4) is 1 (A450 nm 0-1).
“KTMPAATYRLLTGQEQPVYL (Biotin-KTMPAATYRLLTGQEQPVYL) [MINT-3]”: in test [2], the Classification is given as 2 (A450 nm 1-2).
On to `CC[C@H](C)[C@H](NC(=O)[C@H](C)NC(=O)[C@H](CC(C)C)NC(=O)[C@H](Cc1c[nH]c2ccccc12)NC(=O)[C@H](Cc1c[nH]cn1)NC(=O)[C@H](CCC(N)=O)NC(=O)[C@H](CC(C)C)NC(=O)[C@H](CCC(N)=O)NC(=O)[C@H](Cc1ccccc1)NC(=O)[C@H](CCC(N)=O)NC(=O)[C@H](CCCNC(=N)N)NC(=O)[C@@H](NC(=O)[C@H](CC(=O)O)NC(=O)[C@H](CCCNC(=N)N)NC(=O)[C@H](CCC(N)=O)NC(=O)[C@H](C)NC(=O)[C@@H](NC(=O)[C@H](CC(C)C)NC(=O)[C@H](Cc1c[nH]cn1)NC(=O)[C@H](Cc1c[nH]cn1)NC(=O)CCCC[C@@H]1SC[C@@H]2NC(=O)N[C@@H]21)C(C)C)[C@@H](C)CC)C(=O)O` [noradrenaline transporter] (Biotin-HHLVAQRDIRQFQLQHWLAI-OH; C-terminus assumed), for which the Classification was 2 (A450 nm 1-2) in test [1] (PDZ KIAA1719, PDZ Domain 5) and 2 (A450 nm 1-2) in test [1] (PDZ KIAA1719, PDZ Domain 6).
As to “A2AA_HUMAN (modified) (Biotin-HDFRRAFKKILARGDRKRIV; not fully specified)”, in test [1] (PDZ KIAA1719, PDZ Domain 4), the Classification is listed as 3 (A450 nm 2-3).
Take “A2AC_HUMAN (Modified) (Biotin-DFRPSFKHILFRRARRGFRQ; not fully specified)”: the Classification in test [1] (PDZ KIAA1719, PDZ Domain 3) is reported as 5 (A450 nm of 4 more than 2× repeated); in test [2] it was 3 (A450 nm 2-3).
For `CC[C@H](C)[C@H](NC(=O)[C@H](Cc1ccc(O)cc1)NC(=O)[C@@H](NC(=O)[C@@H]1CCCN1C(=O)[C@H](CCC(N)=O)NC(=O)[C@H](CCC(=O)O)NC(=O)[C@H](CCC(N)=O)NC(=O)[C@H](C)NC(=O)[C@@H](NC(=O)[C@H](CC(C)C)NC(=O)[C@H](CC(C)C)NC(=O)[C@H](CCCNC(=N)N)NC(=O)[C@H](Cc1ccc(O)cc1)NC(=O)[C@H](CCSC)NC(=O)[C@H](C)NC(=O)[C@H](C)NC(=O)[C@@H]1CCCN1C(=O)[C@H](CCSC)NC(=O)[C@@H](NC(=O)[C@H](CCCCN)NC(=O)CCCC[C@@H]1SC[C@@H]2NC(=O)N[C@@H]21)[C@@H](C)O)[C@@H](C)O)C(C)C)C(=O)O` [MINT-1] (Biotin-KTMPAAMYRLLTAQEQPVYI-OH; C-terminus assumed), the Classification in test [3] (PDZ PDZK-1, PDZ Domain 4) was 1 (A450 nm 0-1).
Turning to `CC[C@H](C)[C@H](NC(=O)[C@H](CC(=O)O)NC(=O)[C@H](CCC(=O)O)NC(=O)[C@H](CCCNC(=N)N)NC(=O)[C@@H](NC(=O)CCCC[C@@H]1SC[C@@H]2NC(=O)N[C@@H]21)[C@@H](C)O)C(=O)N[C@@H](Cc1ccc(O)cc1)C(=O)N[C@H](C(=O)N[C@@H](CC(N)=O)C(=O)N[C@@H](Cc1ccc(O)cc1)C(=O)N1CCC[C@H]1C(=O)N[C@H](C(=O)N[C@@H](Cc1ccccc1)C(=O)N[C@@H](CO)C(=O)N[C@@H](CCCNC(=N)N)C(=O)N[C@@H](CCCNC(=N)N)C(=O)N1CCC[C@H]1C(=O)N[C@@H](CCCCN)C(=O)N[C@H](C(=O)N[C@@H](CCCNC(=N)N)C(=O)N[C@H](C(=O)O)C(C)C)[C@@H](C)O)[C@@H](C)O)C(C)C` [DNAM-1] (Biotin-TREDIYVNYPTFSRRPKTRV-OH; C-terminus assumed), the Classification in test [4] (PDZ EBP50, PDZ Domain 1) is 1 (A450 nm 0-1); in test [4] (PDZ EBP50, PDZ Domain 2), 1 (A450 nm 0-1).
In the case of `CC(C)C[C@H](NC(=O)[C@H](C)NC(=O)[C@@H](NC(=O)[C@@H](NC(=O)[C@H](Cc1c[nH]cn1)NC(=O)[C@H](CC(C)C)NC(=O)CNC(=O)[C@H](CCC(N)=O)NC(=O)CNC(=O)CNC(=O)[C@H](C)NC(=O)[C@H](C)NC(=O)[C@H](CCCNC(=N)N)NC(=O)[C@H](C)NC(=O)[C@H](CO)NC(=O)[C@H](CC(=O)O)NC(=O)[C@H](CC(=O)O)NC(=O)[C@H](Cc1c[nH]c2ccccc12)NC(=O)[C@H](C)NC(=O)CCCC[C@@H]1SC[C@@H]2NC(=O)N[C@@H]21)C(C)C)[C@@H](C)O)C(=O)O` [LPAP] (Biotin-AWDDSARAAGGQGLHVTAL-OH; C-terminus assumed), the Classification in test [3] (PDZ PDZK1, PDZ Domain 2, 3, 4) is 3 (A450 nm 2-3); in test [4] (PDZ EBP50, PDZ Domain 1), 5 (A450 nm of 4 more than 2× repeated); in test [4] (PDZ EBP50, PDZ Domain 2), 4 (A450 nm 3-4).
Consider `CC(C)C[C@H](NC(=O)CNC(=O)[C@@H](NC(=O)[C@H](CO)NC(=O)[C@H](CC(N)=O)NC(=O)[C@H](Cc1ccccc1)NC(=O)CNC(=O)[C@H](C)NC(=O)[C@H](C)NC(=O)[C@H](Cc1ccccc1)NC(=O)[C@@H](NC(=O)CCCC[C@@H]1SC[C@@H]2NC(=O)N[C@@H]21)[C@@H](C)O)[C@@H](C)O)C(=O)N1CCC[C@H]1C(=O)N[C@@H](Cc1c[nH]cn1)C(=O)N[C@@H](CO)C(=O)N[C@H](C(=O)N[C@H](C(=O)N[C@@H](CCCNC(=N)N)C(=O)N[C@H](C(=O)O)C(C)C)[C@@H](C)O)[C@@H](C)O` [Neuroligin] (Biotin-TFAAGFNSTGLPHSTTRV-OH; C-terminus assumed), for which the Classification in test [4] (PDZ EBP50, PDZ Domain 1) is 2 (A450 nm 1-2); in test [4] (PDZ EBP50, PDZ Domain 2), 1 (A450 nm 0-1).
On to “VHDAESSDEDGYDWGPATDL (Biotin-VHDAESSDEDGYDWGPATDL) [zona occludens 3 (ZO-3)]”, for which the Classification in test [2] was 2 (A450 nm 1-2).
As for `CC[C@H](C)[C@H](NC(=O)[C@H](CO)NC(=O)[C@@H](NC(=O)[C@H](Cc1ccccc1)NC(=O)[C@H](CO)NC(=O)CCCC[C@@H]1SC[C@@H]2NC(=O)N[C@@H]21)[C@@H](C)O)C(=O)N[C@@H](CC(C)C)C(=O)N[C@H](C(=O)N[C@@H](CS)C(=O)N[C@@H](Cc1c[nH]cn1)C(=O)N[C@@H](CCC(N)=O)C(=O)N[C@@H](CCCNC(=N)N)C(=O)N[C@@H](CCCNC(=N)N)C(=O)N[C@H](C(=O)N[C@@H](CCC(N)=O)C(=O)N[C@@H](CCCNC(=N)N)C(=O)N[C@@H](CCCCN)C(=O)N[C@@H](CCC(=O)O)C(=O)N[C@H](C(=O)N[C@H](C(=O)N[C@@H](C)C(=O)O)C(C)C)[C@@H](C)O)[C@@H](C)O)[C@@H](C)O` [GluR5-2 (rat)], in test [1] (PDZ KIAA1719, PDZ Domain 3), the Classification is 1 (A450 nm 0-1).
As to “LASKSAEEGKQIPDSLSTDL (Biotin-LASKSAEEGKQIPDSLSTDL) [Dock2]”, the Classification in test [4] (PDZ EBP50, PDZ Domain 1) was 1 (A450 nm 0-1); in test [4] (PDZ EBP50, PDZ Domain 2), 2 (A450 nm 1-2).
Regarding “KTMPAAMFRLLTGQETPLYI (Biotin-KTMPAAMFRLLTGQETPLYI) [MINT-2]”, the Classification in test [3] (PDZ PDZK-1, PDZ Domain 4) is given as 1 (A450 nm 0-1).
